Test results reported in the supplement of paper PMC10065799, “High-throughput profiling of sequence recognition by tyrosine kinases and SH2 domains using bacterial peptide display” (eLife, 2023).

Experiments:
AncSZ = assay: phosphorylation enrichment, bacterial display (enrichment ratio); higher = better substrate or ligand; peptides without Tyr show the background
EPHB1 = EPHB1 (UniProt P54762); assay: as above
EPHB2 = EPHB2 (UniProt P29323); assay: as above
FGFR1 = FGFR1 (UniProt P11362); assay: as above
FGFR3 = FGFR3 (UniProt P22607); assay: as above
Fer (mouse) = assay: as above
Fes = Fes (UniProt P07332); assay: as above
Fyn = Fyn (UniProt P06241); assay: as above
Hck = Hck (UniProt P08631); assay: as above
Jak2 = Jak2 (UniProt O60674); assay: as above
MERTK = MERTK (UniProt Q12866); assay: as above
c-Abl (mouse) = assay: as above
c-Src = assay: as above
Grb2 SH2 = Grb2 SH2 (UniProt P62993); assay: SH2 binding enrichment of the phosphorylated peptide, bacterial display (enrichment ratio); higher = better substrate or ligand; peptides without Tyr show the background
SHP2-C SH2 = assay: as above
c-Src SH2 = assay: as above
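Throughout, for SH2 binding enrichment of the phosphorylated peptide, bacterial display: peptide library displayed on the E. coli surface as eCPX fusions, selected cells deep-sequenced, score is each peptide's frequency after selection divided by its frequency in the input.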
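Throughout, for phosphorylation enrichment, bacterial display: 11-residue human phosphosite peptides and single-mutation variants displayed on the E. coli surface, counted by deep sequencing, each peptide's frequency after selection divided by its frequency in the unselected input library; frequency after pTyr selection over input frequency; kinase dosed for 20-30% of maximal phosphorylation in three min.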

Sequence of EPHB2 (P29323 whole entry, looked up): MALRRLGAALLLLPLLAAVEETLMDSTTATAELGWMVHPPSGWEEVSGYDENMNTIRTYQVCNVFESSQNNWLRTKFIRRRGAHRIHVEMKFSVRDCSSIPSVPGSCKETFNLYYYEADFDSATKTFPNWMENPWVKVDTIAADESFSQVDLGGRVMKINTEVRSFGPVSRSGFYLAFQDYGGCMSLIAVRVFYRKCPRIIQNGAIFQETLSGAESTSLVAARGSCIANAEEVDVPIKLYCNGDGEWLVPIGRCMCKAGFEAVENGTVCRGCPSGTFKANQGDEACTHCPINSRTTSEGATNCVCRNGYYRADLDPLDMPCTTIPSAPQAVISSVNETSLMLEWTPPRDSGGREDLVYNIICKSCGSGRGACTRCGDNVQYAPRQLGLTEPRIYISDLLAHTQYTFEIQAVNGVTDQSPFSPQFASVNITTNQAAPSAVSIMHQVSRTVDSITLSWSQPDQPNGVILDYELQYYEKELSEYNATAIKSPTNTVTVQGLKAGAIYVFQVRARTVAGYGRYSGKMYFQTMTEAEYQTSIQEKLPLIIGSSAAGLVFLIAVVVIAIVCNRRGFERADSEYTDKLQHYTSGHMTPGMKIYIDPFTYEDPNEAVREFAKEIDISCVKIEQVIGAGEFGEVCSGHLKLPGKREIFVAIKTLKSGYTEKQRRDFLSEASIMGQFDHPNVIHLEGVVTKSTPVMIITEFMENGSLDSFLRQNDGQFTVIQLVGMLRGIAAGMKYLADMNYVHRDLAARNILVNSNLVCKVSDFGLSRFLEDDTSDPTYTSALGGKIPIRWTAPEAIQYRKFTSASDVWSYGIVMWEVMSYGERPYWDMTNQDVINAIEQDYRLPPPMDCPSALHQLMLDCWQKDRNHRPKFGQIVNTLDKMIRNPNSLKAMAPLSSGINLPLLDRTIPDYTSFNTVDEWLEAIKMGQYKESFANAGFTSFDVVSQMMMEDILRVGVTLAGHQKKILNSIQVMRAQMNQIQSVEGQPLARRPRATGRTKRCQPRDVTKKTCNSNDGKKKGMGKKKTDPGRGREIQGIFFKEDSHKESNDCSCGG
Sequence of MERTK (Q12866 whole entry, looked up): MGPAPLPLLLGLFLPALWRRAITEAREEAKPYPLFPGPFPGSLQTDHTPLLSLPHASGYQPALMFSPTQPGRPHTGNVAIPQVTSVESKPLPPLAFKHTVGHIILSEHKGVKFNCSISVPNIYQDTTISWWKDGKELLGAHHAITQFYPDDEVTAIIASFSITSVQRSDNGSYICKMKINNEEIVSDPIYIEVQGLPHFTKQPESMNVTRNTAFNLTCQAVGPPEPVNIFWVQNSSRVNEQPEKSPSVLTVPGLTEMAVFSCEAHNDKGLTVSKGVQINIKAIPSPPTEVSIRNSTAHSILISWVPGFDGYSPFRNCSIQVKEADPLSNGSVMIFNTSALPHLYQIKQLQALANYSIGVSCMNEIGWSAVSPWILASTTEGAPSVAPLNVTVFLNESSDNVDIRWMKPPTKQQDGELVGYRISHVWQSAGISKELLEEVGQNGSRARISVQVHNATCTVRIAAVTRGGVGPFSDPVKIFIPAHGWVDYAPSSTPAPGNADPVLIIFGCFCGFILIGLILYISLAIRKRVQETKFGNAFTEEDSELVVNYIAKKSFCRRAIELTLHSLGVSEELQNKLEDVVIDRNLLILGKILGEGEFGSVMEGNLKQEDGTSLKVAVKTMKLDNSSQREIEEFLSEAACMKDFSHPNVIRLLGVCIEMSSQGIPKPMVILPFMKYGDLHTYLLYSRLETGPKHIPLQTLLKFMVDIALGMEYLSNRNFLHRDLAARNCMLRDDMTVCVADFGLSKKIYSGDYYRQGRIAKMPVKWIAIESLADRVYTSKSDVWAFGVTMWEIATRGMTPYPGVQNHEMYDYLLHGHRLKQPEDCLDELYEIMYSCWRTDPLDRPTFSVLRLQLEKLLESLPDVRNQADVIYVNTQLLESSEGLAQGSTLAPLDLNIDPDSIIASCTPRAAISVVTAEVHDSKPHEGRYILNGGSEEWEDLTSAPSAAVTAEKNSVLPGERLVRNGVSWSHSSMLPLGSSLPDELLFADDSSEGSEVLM
Sequence of Fyn (P06241 whole entry, looked up): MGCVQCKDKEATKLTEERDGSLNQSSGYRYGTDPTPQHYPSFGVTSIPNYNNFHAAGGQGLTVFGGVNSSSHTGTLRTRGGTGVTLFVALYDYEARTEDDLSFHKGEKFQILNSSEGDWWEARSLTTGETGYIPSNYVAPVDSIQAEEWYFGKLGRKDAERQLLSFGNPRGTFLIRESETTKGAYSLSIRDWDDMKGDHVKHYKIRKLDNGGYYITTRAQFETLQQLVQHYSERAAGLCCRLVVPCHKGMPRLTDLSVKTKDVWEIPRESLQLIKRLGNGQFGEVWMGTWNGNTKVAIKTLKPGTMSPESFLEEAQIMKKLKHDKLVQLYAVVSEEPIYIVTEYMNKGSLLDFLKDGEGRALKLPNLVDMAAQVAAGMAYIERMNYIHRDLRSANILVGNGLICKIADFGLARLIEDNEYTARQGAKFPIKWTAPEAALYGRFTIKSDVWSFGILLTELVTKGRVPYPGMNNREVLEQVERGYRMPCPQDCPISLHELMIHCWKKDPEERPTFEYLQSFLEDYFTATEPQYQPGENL
Sequence of Fes (P07332 whole entry, looked up): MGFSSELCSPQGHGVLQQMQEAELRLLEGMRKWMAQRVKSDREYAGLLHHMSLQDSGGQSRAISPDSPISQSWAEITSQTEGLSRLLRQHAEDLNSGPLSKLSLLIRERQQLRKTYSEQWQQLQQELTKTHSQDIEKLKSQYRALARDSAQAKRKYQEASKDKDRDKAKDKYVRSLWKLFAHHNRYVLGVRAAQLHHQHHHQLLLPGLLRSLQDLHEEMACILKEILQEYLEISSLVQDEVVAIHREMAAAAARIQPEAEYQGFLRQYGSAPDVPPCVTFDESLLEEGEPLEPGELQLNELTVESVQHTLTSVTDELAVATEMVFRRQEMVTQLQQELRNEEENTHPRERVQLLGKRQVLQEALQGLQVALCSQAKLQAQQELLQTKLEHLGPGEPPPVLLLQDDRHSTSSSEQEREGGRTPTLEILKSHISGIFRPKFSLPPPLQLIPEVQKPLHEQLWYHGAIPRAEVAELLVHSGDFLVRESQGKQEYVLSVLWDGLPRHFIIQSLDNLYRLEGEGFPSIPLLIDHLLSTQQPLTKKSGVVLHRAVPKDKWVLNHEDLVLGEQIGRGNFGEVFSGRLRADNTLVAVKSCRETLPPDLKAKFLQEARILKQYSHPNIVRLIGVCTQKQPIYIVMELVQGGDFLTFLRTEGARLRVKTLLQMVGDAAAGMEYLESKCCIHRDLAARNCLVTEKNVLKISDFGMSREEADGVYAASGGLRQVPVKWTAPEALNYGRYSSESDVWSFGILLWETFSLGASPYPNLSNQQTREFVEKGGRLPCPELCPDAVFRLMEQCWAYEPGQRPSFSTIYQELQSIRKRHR
Sequence of FGFR3 (P22607 whole entry, looked up): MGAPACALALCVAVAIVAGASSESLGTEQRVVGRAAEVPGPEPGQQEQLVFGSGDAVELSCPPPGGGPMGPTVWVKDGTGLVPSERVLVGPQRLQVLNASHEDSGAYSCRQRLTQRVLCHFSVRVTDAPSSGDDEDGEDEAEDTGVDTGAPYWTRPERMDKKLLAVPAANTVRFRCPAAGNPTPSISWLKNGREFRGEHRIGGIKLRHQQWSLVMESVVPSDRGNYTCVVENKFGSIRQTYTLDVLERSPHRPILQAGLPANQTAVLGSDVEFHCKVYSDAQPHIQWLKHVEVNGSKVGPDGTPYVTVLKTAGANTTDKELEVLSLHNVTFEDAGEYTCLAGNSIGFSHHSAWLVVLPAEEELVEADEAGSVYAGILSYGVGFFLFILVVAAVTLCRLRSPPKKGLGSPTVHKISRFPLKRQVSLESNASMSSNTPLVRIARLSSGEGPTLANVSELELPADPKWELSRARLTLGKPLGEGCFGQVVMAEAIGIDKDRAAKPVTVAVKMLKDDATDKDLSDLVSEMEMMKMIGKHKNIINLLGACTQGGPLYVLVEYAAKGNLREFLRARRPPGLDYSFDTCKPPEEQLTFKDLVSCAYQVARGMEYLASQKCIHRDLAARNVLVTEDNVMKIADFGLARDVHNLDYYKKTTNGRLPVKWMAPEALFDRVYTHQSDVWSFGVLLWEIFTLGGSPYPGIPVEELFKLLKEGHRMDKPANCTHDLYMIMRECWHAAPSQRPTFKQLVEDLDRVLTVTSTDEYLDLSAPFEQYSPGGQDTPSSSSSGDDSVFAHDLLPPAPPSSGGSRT
Sequence of Hck (P08631 whole entry, looked up): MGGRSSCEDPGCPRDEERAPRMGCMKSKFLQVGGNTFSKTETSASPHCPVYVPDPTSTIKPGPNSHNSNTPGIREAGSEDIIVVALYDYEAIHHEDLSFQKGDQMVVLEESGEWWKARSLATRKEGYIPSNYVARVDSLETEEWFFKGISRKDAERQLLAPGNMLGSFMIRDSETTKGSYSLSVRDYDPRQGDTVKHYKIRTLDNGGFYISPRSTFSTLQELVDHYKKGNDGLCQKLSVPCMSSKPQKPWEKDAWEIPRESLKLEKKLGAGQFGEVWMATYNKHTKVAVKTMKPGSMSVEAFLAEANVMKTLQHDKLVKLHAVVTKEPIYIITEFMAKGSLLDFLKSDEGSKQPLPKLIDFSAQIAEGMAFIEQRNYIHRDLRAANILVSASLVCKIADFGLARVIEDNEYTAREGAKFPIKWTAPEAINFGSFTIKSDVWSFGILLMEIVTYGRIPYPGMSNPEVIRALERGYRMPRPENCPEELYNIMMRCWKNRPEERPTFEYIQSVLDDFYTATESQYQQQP

| Sequence | SH2 binding enrichment (Grb2 SH2) | SH2 binding enrichment (SHP2-C SH2) | SH2 binding enrichment (c-Src SH2) | phosphorylation enrichment (AncSZ) | phosphorylation enrichment (EPHB1) | phosphorylation enrichment (EPHB2) | phosphorylation enrichment (FGFR1) | phosphorylation enrichment (FGFR3) | phosphorylation enrichment (Fer (mouse)) | phosphorylation enrichment (Fes) | phosphorylation enrichment (Fyn) | phosphorylation enrichment (Hck) | phosphorylation enrichment (Jak2) | phosphorylation enrichment (MERTK) | phosphorylation enrichment (c-Abl (mouse)) | phosphorylation enrichment (c-Src) |
| --- | --- | --- | --- | --- | --- | --- | --- | --- | --- | --- | --- | --- | --- | --- | --- | --- |
| QTEAPYRFIYM [PTPN11_Y511_Q510P] | 0.84 | 0.783 | 0.469 | 1.41 | 0.93 | 1.25 | 7.24 | 5.25 | 11 | 1.6 | 0.697 | 0.984 | 1.22 | 1.4 | 1.15 | 1.93 |
| QTLTDYDTRFF [CSNK2A3_Y131_I133T_YF] | 0.862 | 0.852 | 0.708 | 0.909 | 0.506 | 0.823 | 0.666 | 0.912 | 0.684 | 1.09 | 0.702 | 1.06 | 0.832 | 0.473 | 0.725 | 0.573 |
| RASSVFTRSTG [CCR5_Y339_Y339F] | 0.644 | 0.778 | 0.455 | 0.73 | 0.619 | 0.468 | 0.589 | 0.797 | 0.736 | 0.732 | 0.868 | 0.579 | 0.766 | 0.624 | 0.861 | 0.821 |
| RDWSLYFKIIE [KRT18_Y129_H128L] | 0.567 | 0.406 | 0.314 | 1.66 | 0.799 | 0.576 | 0.395 | 0.841 | 0.464 | 1.56 | 0.447 | 0.356 | 1.09 | 0.327 | 0.4 | 0.354 |
| RFMVGYEMLAQ [GALT_Y339_K334R] | 0.836 | 0.617 | 2.32 | 1.38 | 0.939 | 0.811 | 0.875 | 0.873 | 0.677 | 1.41 | 0.719 | 0.751 | 1.4 | 0.635 | 0.849 | 0.83 |
| RGFRVCFTPDS [PTPRF_Y450_Y450C_YF] | 0.796 | 0.615 | 0.338 | 1.09 | 0.64 | 0.462 | 0.337 | 0.812 | 0.635 | 1.73 | 0.521 | 1.65 | 1.97 | 0.551 | 1.32 | 0.549 |
| RGRSTCFWPRP [GAGE12J_Y9_Y9C_YF] | 0.595 | 0.353 | 0.571 | 0.71 | 0.782 | 0.733 | 1.05 | 0.928 | 0.786 | 0.772 | 0.693 | 0.635 | 1.19 | 0.796 | 1.04 | 0.867 |
| RGRSTYFWPRP [GAGE12J_Y9_YF] | 0.456 | 0.704 | 0.489 | 1.15 | 0.875 | 0.652 | 0.93 | 1.06 | 1.11 | 1.02 | 0.641 | 0.636 | 0.838 | 1.3 | 1.17 | 0.999 |
| RHLLRYLSWTV [CLCNKB_Y93_S88R] | 1.55 | 1.05 | 1.02 | 0.883 | 0.712 | 0.591 | 0.532 | 0.521 | 0.594 | 1.29 | 0.507 | 0.614 | 0.982 | 0.379 | 0.969 | 0.516 |
| RHNEIYEIKVD [LGR5_Y387] | 1.09 | 0.629 | 0.479 | 1.12 | 0.312 | 0.671 | 0.724 | 1.02 | 0.915 | 1.18 | 8.54 | 6.57 | 1.86 | 0.616 | 0.768 | 8.99 |
| RIGRKCKKVRF [F8_Y442_Y442C] | 0.638 | 0.428 | 0.433 | 0.608 | 0.567 | 0.556 | 1.67 | 0.572 | 0.363 | 0.595 | 0.55 | 0.52 | 0.654 | 0.549 | 0.524 | 0.794 |
| RKETFYTLSCR [GUCY2C_Y681] | 0.996 | 0.821 | 0.749 | 1.32 | 1.17 | 1.27 | 1.49 | 1.39 | 1 | 2.07 | 2.44 | 1.03 | 1.03 | 6.83 | 1.29 | 2.02 |
| RKLASYQSCLL [DHX37_Y1080_R1081Q] | 0.784 | 0.646 | 0.517 | 1.01 | 0.592 | 0.799 | 1.19 | 1.22 | 0.555 | 1.11 | 0.901 | 0.665 | 2.02 | 0.539 | 0.872 | 0.463 |
| RLAKTYETTLK [ALB_Y377_E382K] | 0.809 | 0.556 | 0.557 | 0.768 | 1 | 0.681 | 0.553 | 0.463 | 0.406 | 0.848 | 0.82 | 0.459 | 0.607 | 0.695 | 1.65 | 0.817 |
| RLLRGHDQSAY [HLA-C_Y137_Y137H] | 0.959 | 0.747 | 0.623 | 0.632 | 0.403 | 0.336 | 0.417 | 0.455 | 0.387 | 0.587 | 0.336 | 0.549 | 0.754 | 0.371 | 0.597 | 0.361 |
| RLLRGYDQFAY [HLA-C_Y137_S140F] | 1.47 | 1.14 | 1.65 | 0.794 | 0.422 | 0.433 | 0.49 | 0.617 | 0.502 | 0.848 | 0.395 | 0.49 | 0.567 | 0.433 | 0.775 | 0.514 |
| RLLRGYDQSAF [HLA-C_Y137_YF] | 1.26 | 0.953 | 0.758 | 0.669 | 0.422 | 0.526 | 0.412 | 0.712 | 0.502 | 0.592 | 0.416 | 0.439 | 0.628 | 0.443 | 0.708 | 0.459 |
| RLRKFYLGKFL [KLB_Y906_YF] | 0.679 | 0.549 | 0.444 | 0.631 | 0.393 | 0.462 | 0.669 | 0.64 | 0.468 | 0.624 | 0.689 | 0.654 | 0.608 | 0.645 | 0.719 | 0.707 |
| RLRKYYLGKYL [KLB_Y906] | 0.594 | 0.441 | 0.341 | 0.601 | 0.429 | 0.661 | 0.584 | 0.528 | 0.538 | 0.728 | 0.707 | 0.571 | 0.662 | 0.73 | 0.454 | 0.701 |
| RLSARYFQGDL [PDK3_Y337_Y334S] | 0.77 | 1.01 | 0.46 | 0.563 | 0.393 | 0.342 | 0.436 | 0.492 | 0.312 | 0.684 | 0.399 | 0.362 | 0.718 | 0.41 | 0.649 | 0.469 |
| RNEAFYDTFST [EFCAB3_Y372_S370A] | 1.05 | 0.842 | 0.801 | 1.32 | 1.98 | 3.35 | 0.652 | 0.811 | 7.96 | 1.14 | 11.3 | 10.2 | 1.46 | 14.4 | 4.17 | 10 |
| RNGDRYFKGIV [DCX_Y64] | 0.995 | 0.714 | 0.548 | 0.709 | 0.335 | 0.619 | 0.444 | 0.483 | 0.549 | 0.632 | 0.665 | 0.419 | 0.626 | 0.433 | 0.664 | 0.455 |
| RRERPYGGGGG [FUS_Y526] | 0.703 | 0.478 | 0.436 | 0.563 | 0.453 | 0.554 | 0.554 | 0.523 | 0.46 | 0.467 | 0.471 | 0.414 | 0.42 | 0.375 | 0.284 | 0.485 |

Further lines, with some results ahead:

| SH2 binding enrichment (Grb2 SH2) | SH2 binding enrichment (SHP2-C SH2) | SH2 binding enrichment (c-Src SH2) | Sequence | phosphorylation enrichment (AncSZ) | phosphorylation enrichment (EPHB1) | phosphorylation enrichment (EPHB2) | phosphorylation enrichment (FGFR1) | phosphorylation enrichment (FGFR3) | phosphorylation enrichment (Fer (mouse)) | phosphorylation enrichment (Fes) | phosphorylation enrichment (Fyn) | phosphorylation enrichment (Hck) | phosphorylation enrichment (Jak2) | phosphorylation enrichment (MERTK) | phosphorylation enrichment (c-Abl (mouse)) | phosphorylation enrichment (c-Src) |
| --- | --- | --- | --- | --- | --- | --- | --- | --- | --- | --- | --- | --- | --- | --- | --- | --- |
| 1.16 | 0.908 | 1.2 | RGFRVYFTPDS [PTPRF_Y450_YF] | 1.31 | 0.583 | 0.749 | 0.545 | 0.877 | 0.469 | 1.71 | 0.4 | 0.542 | 1.76 | 0.538 | 1.2 | 0.714 |
| 0.681 | 0.469 | 0.59 | RGKDNYETSQL [SPP1_Y225_S224N] | 0.857 | 0.662 | 0.628 | 0.565 | 0.634 | 0.541 | 0.773 | 0.549 | 0.56 | 0.74 | 0.689 | 0.62 | 0.681 |
| 1.96 | 1.53 | 1.11 | RIILLYIFLKN [STXBP1_Y411] | 0.83 | 0.298 | 0.332 | 0.466 | 0.489 | 0.45 | 1.01 | 0.212 | 0.42 | 0.994 | 0.581 | 0.827 | 0.62 |
| 0.707 | 0.572 | 0.621 | RNYDTYTAGLS [RHBDD1_Y264] | 0.955 | 7.39 | 14.6 | 0.602 | 0.438 | 0.707 | 0.901 | 1.49 | 5.02 | 0.677 | 0.841 | 0.729 | 1.39 |
| 0.847 | 0.377 | 0.581 | RPFFLYVAFHD [SGSH_Y174] | 1.28 | 0.731 | 0.579 | 0.503 | 0.941 | 0.47 | 1.58 | 0.381 | 0.58 | 1.54 | 0.442 | 1.24 | 0.43 |
| 0.758 | 1.1 | 4.1 | RPSELYYSKIG [SMG1_Y2253] | 1.08 | 1.79 | 0.88 | 3.1 | 1.84 | 1.59 | 1.23 | 1.69 | 11.3 | 1.06 | 20.1 | 1.01 | 5.63 |
| 0.541 | 0.514 | 0.464 | RPSGRYPVARR [SHANK3_Y1569] | 0.782 | 0.734 | 0.567 | 0.669 | 1.05 | 0.695 | 0.611 | 0.985 | 0.767 | 0.619 | 0.664 | 0.677 | 0.782 |
| 1.27 | 0.66 | 0.609 | RQEEEYKRFSE [SFSWAP_Y133_L136F] | 1.41 | 0.779 | 0.88 | 0.712 | 0.918 | 0.663 | 1.95 | 0.602 | 0.648 | 1.11 | 0.682 | 0.831 | 0.554 |
| 0.532 | 0.531 | 0.389 | RRIHRYRGHLW [VHL_Y112_S111R] | 0.563 | 0.507 | 0.445 | 0.43 | 0.452 | 0.376 | 0.524 | 0.468 | 0.462 | 0.375 | 0.575 | 0.382 | 0.49 |
| 0.923 | 0.568 | 0.484 | RRIHSNRGHLW [VHL_Y112_Y112N] | 0.702 | 0.496 | 0.48 | 0.357 | 0.408 | 0.485 | 0.732 | 0.574 | 0.709 | 0.653 | 0.677 | 0.825 | 0.625 |
